Reference: US20200262898A1
Values belong to the binder of their own block, whether it stands above or below them.

Columns and labels:
CD147 = CD147 (UniProt P35613); assay: flow cytometry on cells transfected with the target; signal over mock-transfected cells (background = 1.0)
[1] = target: Fc-binding protein (the ZZ domain of ProA); assay: flow cytometry on cells expressing the Fc-binding ZZ domain on their surface; given as a measure of expression
CD151 = target: T1, CD151 (UniProt P48509); assay: flow cytometry on cells transfected with the target; signal over mock-transfected cells (background = 1.0)
T1 sequence (looked up): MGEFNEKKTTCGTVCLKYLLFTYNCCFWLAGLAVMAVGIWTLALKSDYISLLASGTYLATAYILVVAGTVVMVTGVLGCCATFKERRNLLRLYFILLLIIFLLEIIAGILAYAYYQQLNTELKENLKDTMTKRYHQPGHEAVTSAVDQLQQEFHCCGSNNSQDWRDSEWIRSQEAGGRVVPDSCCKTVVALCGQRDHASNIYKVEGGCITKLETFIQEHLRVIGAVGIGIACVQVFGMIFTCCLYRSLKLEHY

CD81 = target: T2, CD81 (UniProt P60033); assay: as above
T2 sequence (looked up): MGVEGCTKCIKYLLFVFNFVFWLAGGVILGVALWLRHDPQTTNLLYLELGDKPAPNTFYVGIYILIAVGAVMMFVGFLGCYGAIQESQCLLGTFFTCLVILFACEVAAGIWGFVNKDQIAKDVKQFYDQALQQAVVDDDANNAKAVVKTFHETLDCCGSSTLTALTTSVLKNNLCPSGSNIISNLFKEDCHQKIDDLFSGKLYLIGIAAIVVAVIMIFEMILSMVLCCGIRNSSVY

CD59 = target: T3, CD59 (UniProt P13987); assay: as above
T3 sequence (looked up): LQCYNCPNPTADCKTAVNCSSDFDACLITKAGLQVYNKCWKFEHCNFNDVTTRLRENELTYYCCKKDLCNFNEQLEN

CD63 = CD63 (UniProt P08962); assay: as above
IGSF8 = target: T4, IGSF8 (UniProt Q969P0); assay: as above
T4 sequence (looked up): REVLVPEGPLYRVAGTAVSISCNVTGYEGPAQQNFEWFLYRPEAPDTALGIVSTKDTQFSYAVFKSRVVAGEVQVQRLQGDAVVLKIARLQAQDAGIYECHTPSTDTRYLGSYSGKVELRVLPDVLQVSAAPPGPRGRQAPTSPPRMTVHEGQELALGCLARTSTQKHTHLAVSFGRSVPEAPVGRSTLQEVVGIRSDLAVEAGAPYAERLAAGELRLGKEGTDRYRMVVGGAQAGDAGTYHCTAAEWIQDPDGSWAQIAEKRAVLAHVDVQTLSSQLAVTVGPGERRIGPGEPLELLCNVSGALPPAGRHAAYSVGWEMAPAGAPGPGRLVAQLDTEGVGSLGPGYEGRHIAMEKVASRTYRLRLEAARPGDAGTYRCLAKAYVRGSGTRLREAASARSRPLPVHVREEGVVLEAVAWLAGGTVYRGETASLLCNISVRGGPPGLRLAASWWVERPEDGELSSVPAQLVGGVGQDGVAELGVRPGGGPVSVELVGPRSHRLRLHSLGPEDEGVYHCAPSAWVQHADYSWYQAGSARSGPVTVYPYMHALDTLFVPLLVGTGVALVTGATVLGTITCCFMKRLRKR

B1: Antibody of common light chain C11 (C11chicken) paired with the heavy chain against CD147 (antibody, V domains shown)
VH: AVTLDESGGGLQTPGGGLSLVCKASGFTFSSYAMYWVRQAPGKGLQWVAGISRDGSSGRYGAAVKGRATISRDNGQSTVRLQLNNLRAEDTATYFCAKSGYGDYTSADEIDAWGHGTEVIVSS
VL: ALTQPSSVSANPGETVKITCSGGGSWYGSYYYGWYQQKSPGSAPVTLIYNNDKRPSDIPSRFSGSESGSTATLTITGVQAEDEAVYFCGGYDSTTTDMFGAGTTLTVL
- S:B Binding (CD147): 1.4 S:B

B2: Antibody of common light chain B9 (B9chicken) paired with the heavy chain against CD147 (antibody, V domains shown)
VH: B1 VH
VL: ALTQPSSVSANPGETVKITCSGGGSSNYYGWYQQKSPGSAPVTLIYGTNKRPSDIPSRFSGSKSGSTGTLTITGVQADDEAVYFCGSADSSTNAGIFGAGTTLTVL
- S:B Binding (CD147): 10.3 S:B

B6: Antibody of common light chain F10 (F10chicken) paired with the heavy chain against CD59 (antibody, V domains shown)
VH: AVTLDESGGGLQTPGGGLSLVCKASGFDFSSFDMVWVRQAPGKGLEWVAGISYSNTDTSYAPAVDGRATISRDNGQSTVRLQLNNLRAEDSATYYCAKSAGGCCYRADNIDAWGHGTEVIVSS
VL: ALTQPSSVSANPGETVKITCSGGYNGHYGWYQQKSPGSAPVTVIYSNNQRPSNIPSRFSGSTSGSTSTLTITGVRAEDEAVYFCGGYDSSAGIFGAGTTLTVL
- S:B Binding (CD59): 14.6 S:B
- S:B Expression [1]: 12.2 S:B

B7: Antibody of common light chain F10 (F10chicken) paired with the heavy chain against CD63 (antibody, V domains shown)
VH: AVTLDESGGGLQTPGGALSLVCKASGFTFSDRGMHWVRQAPGKGLEWVAGIRSTGSFTLYGAAVKGRATISRDDGQSTLRLQLNNLRAEDTGTYYCAKSAGGYGCGRGWCGVDDIDAWGHGTEVIVSS
VL: B6 VL
- S:B Binding (CD63): 5.2 S:B
- S:B Expression [1]: 15.5 S:B

Second part, the binder after the results:

- S:B Binding (CD147): 5.7 S:B
- S:B Expression [1]: 15.5 S:B
B3: Antibody of common light chain F10 (F10chicken) paired with the heavy chain against CD147 (antibody, V domains shown)
VH: B1 VH
VL: B6 VL

- S:B Binding (CD151): 25.1 S:B
- S:B Expression [1]: 13.7 S:B
B4: Antibody of common light chain F10 (F10chicken) paired with the heavy chain against CD151 (antibody, V domains shown)
VH: AVTLDESGGGLQMPGGALSLVCKASGFTFSSYGMEWVRQAPGKGLEWVAGISSGGGSTDYGTAVKGRATISRDNGQSTVRLQLNNLRAEDTGTYFCAKSAYGGTWDGDDIDAWGHGTEVIVSS
VL: B6 VL

- S:B Binding (CD81): 0.4 S:B
- S:B Expression [1]: 11.1 S:B
B5: Antibody of common light chain F10 (F10chicken) paired with the heavy chain against CD81 (antibody, V domains shown)
VH: AVTLDESGGGLQTPGGALSLVCKASGFSIGDYNMGWVRQAPGKGLEWVAGIDAGGGTWRATAVKGRATISRDNGQSTVRLQLNNLRAEDTATYFCAKSTDSSANCCANSIDAWGHGTEVIVSS
VL: B6 VL

- S:B Binding (IGSF8): 1.6 S:B
- S:B Expression [1]: 11.9 S:B
B8: Antibody of common light chain F10 (F10chicken) paired with the heavy chain against IGSF8 (antibody, V domains shown)
VH: AVTLDESGGGLQTPGGGLSLVCKASGFSISSYEMQWVRQAPGKGLEWVAGIDDDGSSRAYAPAVKGRATISRDNGQSTVRLQLNNLRAEDTGTYYCAKTIYAATLNAGEIDAWGHGTEVIVSS
VL: B6 VL
